From patent US10866245B2, “Methods for dye selection for protein melt temperature determinations” (LIFE TECHNOLOGIES CORPORATION, priority 2013, dated 2020)

Key:
T4 DNA ligase = target: T1, T4 DNA ligase (Enterobacteria phage T4, UniProt P00970); assay: Protein Thermal Shift assay of T4 DNA ligase with and without ligand ATP (SYPRO Orange); format: binding; settings: derivative curve FIG. 2B
T1 sequence (P00970 1-487): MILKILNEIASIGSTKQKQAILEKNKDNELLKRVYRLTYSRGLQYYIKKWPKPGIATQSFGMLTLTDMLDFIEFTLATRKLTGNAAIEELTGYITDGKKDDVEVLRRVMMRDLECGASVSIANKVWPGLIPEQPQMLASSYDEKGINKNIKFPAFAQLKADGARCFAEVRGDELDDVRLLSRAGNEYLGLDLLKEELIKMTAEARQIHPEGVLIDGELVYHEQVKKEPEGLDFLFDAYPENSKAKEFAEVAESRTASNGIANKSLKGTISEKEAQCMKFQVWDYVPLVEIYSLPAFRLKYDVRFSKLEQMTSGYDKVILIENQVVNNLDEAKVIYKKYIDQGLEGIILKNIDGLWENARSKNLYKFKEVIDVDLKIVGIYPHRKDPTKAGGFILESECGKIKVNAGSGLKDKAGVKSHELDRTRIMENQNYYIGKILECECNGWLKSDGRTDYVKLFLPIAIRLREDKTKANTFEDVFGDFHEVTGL
Protocol: (§1) Applied Biosystems® Real-time PCR Systems instruments, as described above, are used to plot the fluorescence data throughout the thermal melt, generating a fluorescence profile specific to the protein of interest within the test buffer environment or in the presence of a test ligand. A MATLAB based TmTool™ which utilizes the Boltzmann equation to calculate the Tm of the protein from the fluorescence melt plot is used to process the raw data recorded with the instrument.
T4 DNA ligase is prepared in phosphate buffered saline (PBS; 137 mM NaCl, 10 mM Phosphate, 2.7 mM KCl, pH 7.4) and 5% glycerol at a concentration of 3 mg/ml of protein. T4 DNA ligase samples are prepared using SYPRO® Orange with and without ligand (ATP at 10 mM concentration). SYPRO® Orange dye solution is prepared as a 1000× stock from a 5000× stock solution in DMSO, then diluted to a 10× stock solution using 100 mM Potassium phosphate buffer. The SYPRO® Orange-protein reaction mixture is prepared by using 1 μl of the protein solution, 2 μl of the 10× dye solution, and 17 μl of the PTS buffer. Quadruplicate samples for each protein-dye mixture are run on a ViiA™ 7 qPCR instrument (Life Technologies, Inc.) and analysis using Protein Thermal Shift™ software (Life Technologies Inc.). […]

[1] = Protein Thermal Shift buffer and salt screen of RecA (SYPRO Orange, Boltzmann fit); format: physicochemical
Source text: as §1
FIGS. 3A through 3C illustrate the method of calculating Tm from a typical PTS. The MATLAB based TmTool™ calculates the Tm of the protein from the shape of the fluorescence plot in FIG. 3a. The thermo-stability of RecA in different buffer and salt conditions is compared and the region of interest is fitted to the Boltzmann equation. RecA is prepared in phosphate buffered saline (PBS; 137 mM NaCl, 10 mM Phosphate, 2.7 mM KCl, pH 7.4) and 5% glycerol at a concentration of 3 mg/ml of protein. SYPRO® Orange dye solution is prepared as a 1000× stock from a 5000× stock solution in DMSO, then diluted to a 10× stock solution with PTS buffer.
The SYPRO® Orange-protein Protein Thermal Shift Assay reaction mixture is prepared by using 1 μl of the protein solution, 2 μl of the 10× dye solution, and 17 μl of each of experimental buffer solutions A1-A4, B1-B4, C1-C4, and D1-D4. Samples for each protein-dye mixture are run on a ViiA™ 7 qPCR instrument (Life Technologies, Inc.) and analysis using Protein Thermal Shift™ software (Life Technologies Inc.). The run time conditions are: a temperature hold at 20° C. for one minute followed by a thermal ramp of 0.05° C. with continuous data collection to 95° C., followed by a 1 minute hold at the final temperature.
The Applied Biosystems' TmTool™ calculator provides the protein Tm calculated via Boltzmann curve-fitting. […] Thus, the methods can be used to identify salt and pH concentrations best suited for stability of a protein as well as conditions for protein storage, crystallography, etc. The Boltzmann equation used is: […]

[2] = Protein Thermal Shift of RecA with dye formulation 7 versus SYPRO Orange alone; format: physicochemical
Protocol: The assays are run on a ViiA™7 qPCR instrument (Life Technologies, Inc.) and analyzed using Protein Thermal Shift™ software (Life Technologies Inc.). The run time conditions are: a temperature hold at 20° C. for one minute followed by a thermal ramp of 0.05° C. with continuous data collection to 95° C., followed by a 1 minute hold at the final temperature.
PTS is performed on RecA, using conditions as is discussed in Example 6. 1.4 μl of each of the 100× dye formulations is added according to Table 9. PTS reproducibility is improved with dye formulation 7 (SYPRO® Orange, SYPRO® Red and SYPRO® Tangerine) (FIGS. 13A and 13B) using an X5-M5 filter relative to SYPRO® Orange alone using an X4-M4 filter. In FIG. 13A, using the mixture of dyes (formulation 7), the two melt curves shown are for RecA in E3 and C3 buffer, respectively.

Human Decorin Protein = target: T2, Human Decorin Protein (Homo sapiens, UniProt P07585); assay: Protein Thermal Shift of human Decorin, anti-Decorin antibody and their mixture; format: binding; settings: isolated protein or isolated antibody
T2 construct: purchased R&D Systems 143-DE
Protocol: T4 DNA ligase is prepared in phosphate buffered saline (PBS; 137 mM NaCl, 10 mM Phosphate, 2.7 mM KCl, pH 7.4) and 5% glycerol at a concentration of 3 mg/ml of protein. T4 DNA ligase samples are prepared using SYPRO® Orange with and without ligand (ATP at 10 mM concentration). SYPRO® Orange dye solution is prepared as a 1000× stock from a 5000× stock solution in DMSO, then diluted to a 10× stock solution using 100 mM Potassium phosphate buffer. The SYPRO® Orange-protein reaction mixture is prepared by using 1 μl of the protein solution, 2 μl of the 10× dye solution, and 17 μl of the PTS buffer. Quadruplicate samples for each protein-dye mixture are run on a ViiA™ 7 qPCR instrument (Life Technologies, Inc.) and analysis using Protein Thermal Shift™ software (Life Technologies Inc.). The run time conditions are: a temperature hold at 20° C. for one minute followed by a thermal ramp of 0.05° C. with continuous data collection to 95° C., followed by a 1 minute hold at the final temperature.
An assay was performed to identify whether PTS can be used to analyze binding of an antibody to its ligand. The method is performed using buffer and reaction conditions as described in EXAMPLE 1.

With Nc1ncnc2c1ncn2[C@@H]1O[C@H](COP(=O)(O)OP(=O)(O)OP(=O)(O)O)[C@@H](O)[C@H]1O [ATP, reference compound] the “Tm of complexed T4 DNA Ligase” value (T4 DNA ligase; with ligand ATP at 10 mM) was “about 48 °C”.

For RecA: RecA DNA repair protein, the “Tm in ° C.” value ([1]; Buffer A1: 100 mM Sodium Citrate, pH 5.5, 0 mM NaCl) was 42.2 °C, the “Tm in ° C.” value ([1]; Buffer A2: 100 mM Sodium Citrate, pH 5.5, 50 mM NaCl) was 41.7 °C and the “Tm in ° C.” value ([1]; Buffer A3: 100 mM Sodium Citrate, pH 5.5, 100 mM NaCl) was 42.1 °C. The “Tm in ° C.” value ([1]; Buffer A4: 100 mM Sodium Citrate, pH 5.5, 150 mM NaCl) was 41.6 °C, the “Tm in ° C.” value ([1]; Buffer B1: 100 mM Potassium Phosphate, pH 6.0, 0 mM NaCl) was 41.8 °C and the “Tm in ° C.” value ([1]; Buffer B2: 100 mM Potassium Phosphate, pH 6.0, 50 mM NaCl) was 41.2 °C. The “Tm in ° C.” value ([1]; Buffer B3: 100 mM Potassium Phosphate, pH 6.0, 100 mM NaCl) was 41.2 °C, the “Tm in ° C.” value ([1]; Buffer B4: 100 mM Potassium Phosphate, pH 6.0, 150 mM NaCl) was 41.1 °C and the “Tm in ° C.” value ([1]; Buffer C1: 100 mM Potassium Phosphate, pH 7.0, 0 mM NaCl) was 46.8 °C. The “Tm in ° C.” value ([1]; Buffer C2: 100 mM Potassium Phosphate, pH 7.0, 50 mM NaCl) was 46.6 °C, the “Tm in ° C.” value ([1]; Buffer C3: 100 mM Potassium Phosphate, pH 7.0, 100 mM NaCl) was 46 °C and the “Tm in ° C.” value ([1]; Buffer C4: 100 mM Potassium Phosphate, pH 7.0, 150 mM NaCl) was 45.7 °C. For the same molecule, the Tm ([2]; Buffer C3, SYPRO Orange alone, X4-M4 filter) was 53.3 °C, the Tm ([2]; Buffer C3, dye formulation 7, X5-M5 filter) was 49.5 °C and the Tm ([2]; Buffer E3, SYPRO Orange alone, X4-M4 filter) was 48.1 °C. The Tm ([2]; Buffer E3, dye formulation 7, X5-M5 filter) was 45.7 °C.

B1: Human Decorin: Human Decorin Protein, P/N 143-DE (R&D Systems) (protein, UniProt P07585 31-359, looked up)
Decorin: DEASGIGPEVPDDRDFEPSLGPVCPFRCQCHLRVVQCSDLGLDKVPKDLPPDTTLLDLQNNKITEIKDGDFKNLKNLHALILVNNKISKVSPGAFTPLVKLERLYLSKNQLKELPEKMPKTLQELRAHENEITKVRKVTFNGLNQMIVIELGTNPLKSSGIENGAFQGMKKLSYIRIADTNITSIPQGLPPSLTELHLDGNKISRVDAASLKGLNNLAKLGLSFNSISAVDNGSLANTPHLRELHLDNNKLTRVPGGLAEHKYIQVVYLHNNNISVVGSSDFCPPGHNTKKASYSGVSLFSNPVQYWEIQPSTFRCVYVRSAIQLGNYK
In the case of B1, the Tm (Human Decorin Protein) is reported as 47.7 °C.

B2: T4 DNA Ligase: T4 DNA ligase enzyme prepared in PBS and 5% glycerol at 3 mg/ml (protein, UniProt P00970 1-487, looked up)
DNA ligase: MILKILNEIASIGSTKQKQAILEKNKDNELLKRVYRLTYSRGLQYYIKKWPKPGIATQSFGMLTLTDMLDFIEFTLATRKLTGNAAIEELTGYITDGKKDDVEVLRRVMMRDLECGASVSIANKVWPGLIPEQPQMLASSYDEKGINKNIKFPAFAQLKADGARCFAEVRGDELDDVRLLSRAGNEYLGLDLLKEELIKMTAEARQIHPEGVLIDGELVYHEQVKKEPEGLDFLFDAYPENSKAKEFAEVAESRTASNGIANKSLKGTISEKEAQCMKFQVWDYVPLVEIYSLPAFRLKYDVRFSKLEQMTSGYDKVILIENQVVNNLDEAKVIYKKYIDQGLEGIILKNIDGLWENARSKNLYKFKEVIDVDLKIVGIYPHRKDPTKAGGFILESECGKIKVNAGSGLKDKAGVKSHELDRTRIMENQNYYIGKILECECNGWLKSDGRTDYVKLFLPIAIRLREDKTKANTFEDVFGDFHEVTGL
For B2, the “Tm of uncomplexed T4 DNA Ligase” value (T4 DNA ligase; no ligand) was “about 42 °C”.
